According to publication PMC7954794, “Protein context shapes the specificity of SH3 domain-mediated interactions in vivo” (Nature Communications, 2021):

B1: YGL153W (protein, UniProt P53112 2-341, looked up)
Peroxisomal membrane protein …: SDVVSKDRKALFDSAVSFLKDESIKDAPLLKKIEFLKSKGLTEKEIEIAMKEPKKDGIVGDEVSKKIGSTENRASQDMYLYEAMPPTLPHRDWKDYFVMATATAGLLYGAYEVTRRYVIPNILPEAKSKLEGDKKEIDDQFSKIDTVLNAIEAEQAEFRKKESETLKELSDTIAELKQALVQTTRSREKIEDEFRIVKLEVVNMQNTIDKFVSDNDGMQELNNIQKEMESLKSLMNNRMESGNAQDNRLFSISPNGIPGIDTIPSASEILAKMGMQEESDKEKENGSDANKDDNAVPAWKKAREQTIDSNASIPEWQKNTAANEISVPDWQNGQVEDSIP
B2: YLR191W (protein)
chain: EFARALYDFVPENPEMEVALKKGDLMAILSKKDPLGRDSDWWKVRTKNGNIGYIPYNYIEIIK
B3: ABP1 V20V (protein, UniProt P15891 2-592, looked up)
Actin-binding protein: ALEPIDYTTHSREIDAEYLKIVRGSDPDTTWLIISPNAKKEYEPESTGSSFHDFLQLFDETKVQYGLARVSPPGSDVEKIIIIGWCPDSAPLKTRASFAANFAAVANNLFKGYHVQVTARDEDDLDENELLMKISNAAGARYSIQTSSKQQGKASTPPVKKSFTPSKSPAPVSKKEPVKTPSPAPAAKISSRVNDNNDDDDWNEPELKERDFDQAPLKPNQSSYKPIGKIDLQKVIAEEKAKEDPRLVQKPTAAGSKIDPSSDIANLKNESKLKRDSEFNSFLGTTKPPSMTESSLKNDDDKVIKGFRNEKSPAQLWAERKAKQNSGNAETKAEAPKPEVPEDEPEGEPDVKDLKSKFEGLAASEKEEEEMENKFAPPPKKSEPTIISPKPFSKPQEPVKAEEAEQPKTDYKKIGNPLPGMHIEADNEEEPEENDDDWDDDEDEAAQPPLPSRNVASGAPVQKEEPEQEEIAPSLPSRNSIPAPKQEEAPEQAPEEEIEEEAEEAAPQLPSRSSAAPPPPPRRATPEKKPKENPWATAEYDYDAAEDNELTFVENDKIINIEFVDDDWWLGELEKDGSKGLFPSNYVSLGN
modifications: synonymous V20V codon change in SH3
B4: ABP1 N22N (protein, UniProt P15891 2-592, looked up)
Actin-binding protein: ALEPIDYTTHSREIDAEYLKIVRGSDPDTTWLIISPNAKKEYEPESTGSSFHDFLQLFDETKVQYGLARVSPPGSDVEKIIIIGWCPDSAPLKTRASFAANFAAVANNLFKGYHVQVTARDEDDLDENELLMKISNAAGARYSIQTSSKQQGKASTPPVKKSFTPSKSPAPVSKKEPVKTPSPAPAAKISSRVNDNNDDDDWNEPELKERDFDQAPLKPNQSSYKPIGKIDLQKVIAEEKAKEDPRLVQKPTAAGSKIDPSSDIANLKNESKLKRDSEFNSFLGTTKPPSMTESSLKNDDDKVIKGFRNEKSPAQLWAERKAKQNSGNAETKAEAPKPEVPEDEPEGEPDVKDLKSKFEGLAASEKEEEEMENKFAPPPKKSEPTIISPKPFSKPQEPVKAEEAEQPKTDYKKIGNPLPGMHIEADNEEEPEENDDDWDDDEDEAAQPPLPSRNVASGAPVQKEEPEQEEIAPSLPSRNSIPAPKQEEAPEQAPEEEIEEEAEEAAPQLPSRSSAAPPPPPRRATPEKKPKENPWATAEYDYDAAEDNELTFVENDKIINIEFVDDDWWLGELEKDGSKGLFPSNYVSLGN
modifications: synonymous codon change N22N
B5: ABP1 D23D (protein, UniProt P15891 2-592, looked up)
Actin-binding protein: ALEPIDYTTHSREIDAEYLKIVRGSDPDTTWLIISPNAKKEYEPESTGSSFHDFLQLFDETKVQYGLARVSPPGSDVEKIIIIGWCPDSAPLKTRASFAANFAAVANNLFKGYHVQVTARDEDDLDENELLMKISNAAGARYSIQTSSKQQGKASTPPVKKSFTPSKSPAPVSKKEPVKTPSPAPAAKISSRVNDNNDDDDWNEPELKERDFDQAPLKPNQSSYKPIGKIDLQKVIAEEKAKEDPRLVQKPTAAGSKIDPSSDIANLKNESKLKRDSEFNSFLGTTKPPSMTESSLKNDDDKVIKGFRNEKSPAQLWAERKAKQNSGNAETKAEAPKPEVPEDEPEGEPDVKDLKSKFEGLAASEKEEEEMENKFAPPPKKSEPTIISPKPFSKPQEPVKAEEAEQPKTDYKKIGNPLPGMHIEADNEEEPEENDDDWDDDEDEAAQPPLPSRNVASGAPVQKEEPEQEEIAPSLPSRNSIPAPKQEEAPEQAPEEEIEEEAEEAAPQLPSRSSAAPPPPPRRATPEKKPKENPWATAEYDYDAAEDNELTFVENDKIINIEFVDDDWWLGELEKDGSKGLFPSNYVSLGN
modifications: synonymous codon change D23D
B6: ABP1 E21E (protein, UniProt P15891 2-592, looked up)
Actin-binding protein: ALEPIDYTTHSREIDAEYLKIVRGSDPDTTWLIISPNAKKEYEPESTGSSFHDFLQLFDETKVQYGLARVSPPGSDVEKIIIIGWCPDSAPLKTRASFAANFAAVANNLFKGYHVQVTARDEDDLDENELLMKISNAAGARYSIQTSSKQQGKASTPPVKKSFTPSKSPAPVSKKEPVKTPSPAPAAKISSRVNDNNDDDDWNEPELKERDFDQAPLKPNQSSYKPIGKIDLQKVIAEEKAKEDPRLVQKPTAAGSKIDPSSDIANLKNESKLKRDSEFNSFLGTTKPPSMTESSLKNDDDKVIKGFRNEKSPAQLWAERKAKQNSGNAETKAEAPKPEVPEDEPEGEPDVKDLKSKFEGLAASEKEEEEMENKFAPPPKKSEPTIISPKPFSKPQEPVKAEEAEQPKTDYKKIGNPLPGMHIEADNEEEPEENDDDWDDDEDEAAQPPLPSRNVASGAPVQKEEPEQEEIAPSLPSRNSIPAPKQEEAPEQAPEEEIEEEAEEAAPQLPSRSSAAPPPPPRRATPEKKPKENPWATAEYDYDAAEDNELTFVENDKIINIEFVDDDWWLGELEKDGSKGLFPSNYVSLGN
modifications: synonymous codon change E21E in SH3
B7: YDR329C (protein, UniProt P28795 1-441, looked up)
Peroxisomal biogenesis factor …: MAPNQRSRSLLQRHRGKVLISLTGIAALFTTGSVVVFFVKRWLYKQQLRITEQHFIKEQIKRRFEQTQEDSLYTIYELLPVWRMVLNENDLNLDSIVTQLKDQKNQLTRAKSSESRESSPLKSKAELWNELELKSLIKLVTVTYTVSSLILLTRLQLNILTRNEYLDSAIKLTMQQENCNKLQNRFYNWVTSWWSDPEDKADDAMVMAAKKSKKEGQEVYINEQAFLSLSWWILNKGWLSYNEIITNQIEIEFDGIHPRDTLTLEEFSSRLTNIFRNTNSQIFQQNNNNLTSILLPKDSSGQEFLLSQTLDADALTSFHSNTLVFNQLVNELTQCIESTATSIVLESLINESFHFIMNKVGIKTIAKKKPGQEDQQQYQMAVFAMSMKDCCQEMLQTTAGSSHSGSVNEYLATLDSVQPLDDLSASVYSNFGVSSSFSFKP

Experiments:
Format in all cases: cell-based, Saccharomyces cerevisiae
[1] = tested on: BEM1-1; assay: DHFR-PCA on solid medium, bait BEM1-1 (Fig. 1B); settings: bait BEM1-1, label = prey; for medrep (log2 median colony size normalized to plate background, PCA score): 2-8 replicates; for Ratio (SH3-deleted/WT medrep): only significant differences showed, PPIs completely lost have a ratio of 0.1 and the gained PPIs 2.5
From the text: Supplement 41467_2021_21873_MOESM8_ESM.xlsx, sheet "Fig1B" | column: medsize; medrep; Ratio; Score

[2] = tested on: Hua2; assay: Deep mutational scanning of Abp1 SH3, Abp1-Hua2 DHFR-PCA (DMS score); settings: Abp1-Hua2 DHFR-PCA; for HUA2_MTX2: frequencies normalized to the reference condition, MTX2, amino acid level; for hua2sc (DMS score): frequencies scaled to the synonymous mutation distribution
Protocol: (§1) Single site mutation libraries were generated by a PCR-based saturation mutagenesis method[50] as described below. The mutagenesis was carried out on the pUC19 plasmid containing the SH3 domain sequence of ABP1 flanked by its homology arms subsequently used in the CRISPR mediated genomic re-integration. We used oligos containing degenerate nucleotides (NNN) to carry out the mutagenesis at each codon of the domain sequence. In the first step of the two-step PCR procedure (short PCR step), an amplicon was generated with an oligo containing the degenerate codon which is positioned within the domain sequence, and another oligo lying outside Abp1 sequence in the plasmid. Short PCR step was carried out with the following settings: 5 min at 95 °C, 35 cycles: 20 s at 98 °C, 15 s at 60 °C, 30 s at 72 °C, and a final extension of 1 min at 72 °C. The amplicon generated in this step was used as a mega primer in the second step (long PCR step) to amplify the whole plasmid. Long PCR step was carried out with the following settings: 5 min at 95 °C, 22 cycles: 20 s at 98 °C, 15 s at 68 °C, 3 min 30 s at 72 °C, and a final extension of 5 min at 72 °C. The long PCR product was digested for 2 h at 37 °C with DpnI. The digestion product was then transformed into E. coli MC1061 competent cells. In order to obtain most of the 64 possible codons, we recovered ~1000 colonies from each plate to retrieve the plasmid single mutant libraries. Saturation mutagenesis was carried out in a codon-position-wise manner. Mutants at each position were stored separately. Library quality control was assessed by amplifying the purified plasmid DNA preparations by PCR followed by Illumina sequencing as described below. The genomic insertion of the mutant libraries (one library per amino acid position) was performed by targeting the stuffer sequence in the ABP1 SH3-deleted strain as described in the strain construction section. ABP1 SH3-deleted yeast competent cells were co-transformed with pCAS containing the stuffer-specific gRNA and PCR amplified ABP1 SH3 single position mutated libraries from the pUC19 preparations. As for the library generation, ~1000 colonies from each plate were retrieved. Glycerol stocks of yeast cells were kept for each position (58 different stocks corresponding to the 58 amino acid positions of Abp1 SH3). The stocks were also validated by Illumina sequencing (see below).
(§2) Liquid DHFR-PCA experiments were performed following the generation of the ABP1 SH3 single position mutated yeast strains and were performed in biological independent duplicates. An overnight culture was started in YPD + NAT by adding the same number of cells from each yeast mutant strain (master pool). Then, the master pool and Hua2-DHFR F[3] or Lsb3-DHFR F[3] preys strains were mixed in YPD (2:1) for mating and incubated for 8 h at 30 °C. Diploid cells were selected the first time by transferring the mixture in a YPD + NAT + HPH (OD 0.5) culture for 16 h at 30 °C. The next day, the first diploid selection was transferred in SC complete pH 6.0 + NAT + HPH at 0.5 OD and the culture was grown for 24 h at 30 °C. The validation of the yeast mutant libraries was done the next day with a fraction of the diploid cells (first DHFR-PCA experiment time point without PCA selection, reference condition S2) by amplifying ABP1 SH3 genomic sequence followed by Illumina sequencing as described in the section below. Following the selection, diploid cells OD was read using a TECAN Infinite F200 Pro, and dilutions to 0.1 OD in PCA selection media without agar in a 50 mL tube was done. Tubes were incubated at 30 °C for 72 h (second-time point of the DHFR-PCA experiment, first PCA selection). A fraction of the cells (5U OD) was collected for Illumina sequencing. The cells from the first PCA step were grown for a second PCA selection step using the same procedures. […]

[3] = tested on: Lsb3; assay: Deep mutational scanning of Abp1 SH3, Abp1-Lsb3 DHFR-PCA (DMS score); settings: Abp1-Lsb3 DHFR-PCA; for LSB3_MTX2: frequencies normalized to the reference condition, MTX2, amino acid level; for lsb3sc (DMS score): frequencies scaled to the synonymous mutation distribution
Protocol: as §1, §2

Molecule | medrep (log2 median colony size normalized to plate background, PCA score) [1] | Ratio (SH3-deleted/WT medrep) [1] | HUA2_MTX2 [2] | hua2sc (DMS score) [2] | LSB3_MTX2 [3] | lsb3sc (DMS score) [3]
B1 | 2.088 | 2.5 | – | – | – | –
B2 | 3.807 | 2.5 | – | – | – | –
B3 | – | – | 1.042 | -0.571 | 1.496 | -0.004531
B4 | – | – | 0.8417 | -0.7711 | 0.8355 | -0.6648
B5 | – | – | 1.908 | 0.295 | 1.357 | -0.1431
B6 | – | – | 2.3423 | 0.7295 | 2.169 | 0.669
B7 | 2.151 | 2.5 | – | – | – | –
